According to patent US20240018501A1, “HIGHER PERFORMANCE PROTEASES FOR SCARLESS PEPTIDE TAG REMOVAL” (priority 2017, published 2024):

Key:
[1] = test system: Pediococcus acidilactici Pac1.0; experiment: Agar diffusion bioactivity assay; assay type: cell-based; conditions: for activity against P. acidilactici Pac1.0: agar diffusion
Method: (§1) Agar diffusion bioactivity assays were performed using de Man-Rogosa-Sharpe (MRS) agar media. For each assay, aliquots of agar medium inoculated with overnight cultures of indicator strain (1/100 dilution) were poured into sterile plates. Aliquots of 20 μL of sample were placed into wells made on the solidified agar and the plates were incubated at 37° C. overnight. For determination of critical concentration, the diameter of the inhibition zones were determined and fitted to the equation D=a+b×(C), where D is the diameter of the inhibition zone, C is the concentration of bacteriocin, and a and b are constant parameters. For MIC determinations, serial dilutions of peptides were prepared in MRS broth and aliquots of 50 μL were dissolved in 150 μL of a 1 to 50 dilution of an overnight culture of indicator strain in fresh MRS broth on 96-well plates. The cultures were incubated at 37° C. overnight and the wells with no bacterial growth (OD600<0.3) were determined.

His6-ElxO = His6-ElxO activity assay (NADPH absorbance at 340 nm, LC-MS); assay type: biochemical, Staphylococcus epidermidis 15X154; conditions: LC-MS analysis
Method: Wild type or mutant His6-ElxO (2 or 10 μM) and purified peptide (0.1 to 5 mM) were incubated with NADPH (2.5 mM) in assay buffer (100 mM HEPES, 500 mM NaCl, pH 7.5) at 25° C. Reaction progress was monitored by UV spectrophotometry to measure initial rates, measuring the disappearance of NADPH absorbance at 340 nm. […] The mobile phase was 0.1% (v/v) formic acid in water (A) and methanol (B). A gradient of 0-70% (v/v) B in A over 30 minutes and a flow rate of 0.5 mL min^−1 were used.
Synthetic lactocin S (50 μM), obtained from Prof. J. Vederas (University of Alberta), was incubated with His6-ElxO (50 μM) and NADPH (10 mM) in assay buffer (100 mM HEPES, 500 mM NaCl, pH 7.5) at room temperature for 12 h. […] A gradient of 3-97% (v/v) B (0.10% (v/v) formic acid in methanol) in A (0.1% (v/v) formic acid in water) over 12 min was used.

L. sake L45 = experiment: Agar diffusion bioactivity assay, lactocin S producer strain; assay type: cell-based, Lactobacillus sake
Method: as §1

modified CylLS [2] = experiment: Kinetic analysis of full length CylA and CylA-96-412 against modified CylLS (LC/MS); assay type: biochemical, Enterococcus faecalis
Method: Targeted peptides were dissolved in H2O to a final concentration of 3 mg/mL. To a 85 μL solution of peptides, 10 μL of 500 mM HEPES buffer (pH 7.5) was added followed by 5 μL of 0.5 mg/mL AspN protease (for modified CylLL and CylLS peptides), 0.1 mg/mL CylA protease (for modified and unmodified CylLL, CylLS peptides, and modified HalA2-GDVQAE peptide) or 0.1 mg/mL LicP protease (for LicA2). For cleavage tests of the engineered GDVQAE peptides, CylA was added to a final concentration of 0.01 mg/mL, whereas the peptide was added to a concentration of 0.3 mg/mL with 50 mM HEPES buffer (pH 7.5). The protease cleavage reaction mixtures were kept at 25° C. for 1 to 48 h. Osmotic pressure was adjusted with NaCl solution with a final concentration of 150 mM. The digested peptide mixture was directly used for antimicrobial and hemolytic assay. For the kinetic analysis of CylA and its mutant proteins, His6-CylA-27-412 and His6-CylA-27-412-E95A proteins were added to a final concentration of 500 ng/mL and 2.5 μg/mL (22 nM and 110 nM), respectively, with modified CylLS supplied at a concentration of 0.3 mg/mL (36 μM). The reactions were allowed to proceed at room temperature and were stopped by 1% TFA at different time points for LC/MS analysis. Halα and Halβ were obtained by factor Xa cleavage of modified HalA1Xa and HalA2 Xa peptides using the procedure of Y. Shi, et al. J. Am. Chem. Soc. 2011, 133, 2338. CylLL″ and CylLS″ were prepared in the same way using modified CylLL-E-1K and CylLS-E-1K peptides as described in W. Tang and W. A. van der Donk, Nat. Chem. Biol. 2013, 9, 157.
As full length CylA is not available due to its self-cleavage, His6-CylA-27-412-E95A was chosen to serve as a substituent of full length CylA as the self-cleavage was abolished whereas the conserved catalytic C-terminal region of CylA remained unchanged. To obtain the mature protease CylA-96-412, His6-CylA-27-412 was aged at 4° C. for 12 hours to allow the self-cleavage to proceed until CylA-96-412 was the dominant peak monitored by MALDI-TOF MS. The aged protein mixture was directly used as a substituent of CylA-96-412. To test the proteases' activities, CylA-96-412 and His6-CylA-27-412-E95A were supplied with a final concentration of 22 nM and 110 nM, respectively, with modified CylLS served at a concentration of 36 μM. The reactions were stopped at 3 minute, 6 minute, 12 minute and 24 minute by 1% TFA and the formation of mature CylLS″ was monitored by liquid chromatography MS (LC/MS). […] The production of core peptide was analyzed by extracted ion chromatography monitoring the desired product mass 1017 (M+2H^+).

modified CylLS [3] = molecular target: modified CylLS
CylA = CylA self-cleavage (SDS-PAGE, MALDI-TOF MS); assay type: biochemical, Enterococcus faecalis
Method: E. coli BL21 (DE3) cells were transformed with pRSFDuet-1/CylA-27-412, pRSFDuet-1/CylA-27-412-E95A, pRSFDuet-1/CylA-27-412-S359A or pRSFDuet-1/LicP-25-433 vectors and plated on an LB plate containing 50 mg/L kanamycin. A single colony was picked and grown in 20 mL of LB with kanamycin at 37° C. for 12 h and the resulting culture was inoculated into 2 L of LB. Cells were cultured at 37° C. until the OD at 600 nm reached 0.5, cooled and IPTG was added to a final concentration of 0.1 mM. The cells were cultured at 18° C. for another 10 h before harvesting. The cell pellet was resuspended on ice in LanP start buffer (20 mM HEPES, 1 M NaCl, pH 7.5 at 25° C.) and lysed by homogenization. The lysed sample was centrifuged at 23,700×g for 30 min and the pellet was discarded. The supernatant was passed through 0.45-μm syringe filters and the protein was purified by immobilized metal affinity chromatography (IMAC) loaded with nickel as described in B. Li et al. Methods Enzymol. 2009, 458, 533. […] Protein concentration was quantified by its absorbance at 280 nm. The extinction coefficient for His6-CylA-27-412, His6-CylA-27-412-E95A and His6-CylA-27-412-S359A was calculated as 30,830 M^−1 cm^−1. The extinction coefficient for His6-LicP-25-433 was calculated as 46,300 M^−1 cm^−1. […]

[4] = Storage and freeze-thaw stability of the proteases; assay type: physicochemical
[5] = serial dilution agar diffusion, versus control samples containing native lactocin S

Q: With lactocin S [reference compound] as the molecule, how does the “activity against P. acidilactici Pac1.0” value [1] read?
A: active

Q: And the “reduction by His6-ElxO in the presence of NADPH” value (His6-ElxO)?
A: confirming the formation of dihydrolactocin S

Q: And the “activity against L. sake L45” value (L. sake L45)?
A: not against L. sake L45

Q: Which results are given for dihydrolactocin S?
A: activity against P. acidilactici Pac1.0 [1]: active; critical concentrations (no inhibition zone) [1, 5]: smaller; inhibition zones [1, 5]: slightly larger; activity against L. sake L45 (L. sake L45): not against L. sake L45

B1: His6-CylA-27-412-E95A (protein)
chain: MKRIYIFLLCFAVLLPVGGKTAQAKEQAGEQYLLLEHVKDKSKLLDTAEQFHIHADVIEEIGFAKVTGEKQKLAPFTKKLAEKVGADVIEKPIANTAVNETESVISGSPAWGLDGILELKEYLWFAAKQTDSYRTYQIERGHPDVKVALIDSGLDLDHPDLKASVNTNGGWNYIDGKPVSGDPTGHGTQTAGMINIIAPDVTITPYQVLDEKGGDSYNIMKAMVDAVNDGHEVINISTGSYTSLDREGKVLMKAYQRAANYAAKHQVLVFSSAGNKGVNLDEMRKTENKVHLPSALKHVVSVGSNMKSNNISPYSNQGREIEFTAPGGYLGETYDQDGMVRVTDLVLTTYPKGKDNTALDQMLNIPKGYSLSYGTSLAAPQVAGTAALVISEYRERHHRKPSAKQVHHILRKSALDLGKPGKDVIYGYGEVRAYQALKMMNKE
Q: Which “cleavage of modified CylLS” value (modified CylLS [2]) does the source give for B1 here?
A: resulted in cleavage

Q: And the “lower rate of producing CylLS″” value (modified CylLS [2]; enzyme 110 nM, modified CylLS 36 μM, versus CylA-96-412)?
A: ~10 fold

Q: And the “cleavage by His6-CylA-27-412-E95A” value (modified CylLS [3])?
A: Incubation of modified CylLS with His6-CylA-27-412-E95A resulted in cleavage

Q: And the “fold lower rate of producing CylLS″ than CylA-96-412 (LC/MS; 110 nM enzyme, 36 µM substrate)” value (modified CylLS [3])?
A: exhibited an approximate 10-fold lower rate of producing CylLS″

Q: What about the “CylA self-cleavage during expression or purification” value (CylA) of the same molecule?
A: only one band corresponding to the full length protein

B2: CylA-96-412 (protein)
chain: EVNSSILNINILNKDFKSFNWPYKKILSHIDPVKEQLGKDITIALIDSGIDRLHPNLQDNNLRLKNYVNDIELDEYGHGTQVAGVIDTIAPRVNLNSYKVMDGTDGNSINMLKAIVDATNDQVDIINVSLGSYKNMEIDDERFTVEAFRKVVNYARKNNILIVASAGNESRDISTGNEKHIPGGLESVITVGATKKSGDIADYSNYGSNVSIYGPAGGYGDNYKITGQIDAREMMMTYYPTSLVSPLGKAADFPDGYTLSFGTSLATPEVSAALAAIMSKNVDNSKDSNEVLNTLFENADSFIDKNSMLKYKEVRIK
Q: Which “rate of proteolysis of modified CylLS” value (modified CylLS [2]; enzyme 22 nM, modified CylLS 36 μM, room temperature, LC/MS) does the source give for B2 here?
A: 20 substrate peptides per minute

Q: What about the “rate of proteolysis, formation of CylLS″ by LC/MS (22 nM enzyme, 36 µM substrate)” value (modified CylLS [3]) of the same molecule?
A: CylA-96-412 catalyzed the proteolysis of 20 substrate peptides per minute

B3: His6-CylA-27-412: CylA without secretion signal residues 1-26, N-terminal hexa-histidine tag, SEQ ID NO: 10 (protein)
chain: MGSSHHHHHHSQDPNSLSNNISFFIDNSQTTAIEEIESELSSEKVDYIQEIGLVSFKNLDDSDRKFIGKYFNVSEGKKLPDFKPEEVNSSILNINILNKDFKSFNWPYKKILSHIDPVKEQLGKDITIALIDSGIDRLHPNLQDNNLRLKNYVNDIELDEYGHGTQVAGVIDTIAPRVNLNSYKVMDGTDGNSINMLKAIVDATNDQVDIINVSLGSYKNMEIDDERFTVEAFRKVVNYARKNNILIVASAGNESRDISTGNEKHIPGGLESVITVGATKKSGDIADYSNYGSNVSIYGPAGGYGDNYKITGQIDAREMMMTYYPTSLVSPLGKAADFPDGYTLSFGTSLATPEVSAALAAIMSKNVDNSKDSNEVLNTLFENADSFIDKNSMLKYKEVRIK
modifications: N-terminal His6 tag; … PEPTIDE SEQUENCE FOR CylA with His6-tag, without the secretion signal peptide.
Q: For B3, which “CylA self-cleavage during expression or purification” value (CylA) is on record?
A: cleavage event after residue Glu95

B4: CylA: class II LanP subtilisin-like serine protease of enterococcal cytolysin biosynthesis, SEQ ID NO: 9 (protein)
chain: MKKRGLTYILISYIFLILGTTGYASDLSNNISFFIDNSQTTAIEEIESELSSEKVDYIQEIGLVSFKNLDDSDRKFIGKYFNVSEGKKLPDFKPEEVNSSILNINILNKDFKSFNWPYKKILSHIDPVKEQLGKDITIALIDSGIDRLHPNLQDNNLRLKNYVNDIELDEYGHGTQVAGVIDTIAPRVNLNSYKVMDGTDGNSINMLKAIVDATNDQVDIINVSLGSYKNMEIDDERFTVEAFRKVVNYARKNNILIVASAGNESRDISTGNEKHIPGGLESVITVGATKKSGDIADYSNYGSNVSIYGPAGGYGDNYKITGQIDAREMMMTYYPTSLVSPLGKAADFPDGYTLSFGTSLATPEVSAALAAIMSKNVDNSKDSNEVLNTLFENADSFIDKNSMLKYKEVRIK
modifications: … PEPTIDE SEQUENCE FOR FULL LENGTH CylA
Q: With B4 as the molecule, how does the “activity after multiple rounds of freeze-thaw” value [4] read?
A: no obvious decrease of activity

Q: What about the stability on storage ([4]; −20° C) of the same molecule?
A: stable

Q: What about the turnover rate (modified CylLS [2]) of the same molecule?
A: 20 min⁻¹
